Experimental data from US20240343802A1 (Zymeworks, published 2024).
Where two headings read alike, the source gives them in different places.

Assays:
CD32bWT = biological target: T1, CD32bWT (UniProt P31994 43-217); test: SPR, antibody captured, FcγR injected
T1 sequence (looked up): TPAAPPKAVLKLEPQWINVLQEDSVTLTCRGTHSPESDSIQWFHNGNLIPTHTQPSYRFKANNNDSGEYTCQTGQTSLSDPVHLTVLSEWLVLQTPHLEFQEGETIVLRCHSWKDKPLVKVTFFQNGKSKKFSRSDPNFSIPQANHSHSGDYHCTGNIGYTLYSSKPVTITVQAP

CD32aWT = biological target: T2, CD32aWT (UniProt P12318 36-218); test: SPR, antibody captured, FcγR injected
T2 construct: also called CS32a
T2 sequence (looked up): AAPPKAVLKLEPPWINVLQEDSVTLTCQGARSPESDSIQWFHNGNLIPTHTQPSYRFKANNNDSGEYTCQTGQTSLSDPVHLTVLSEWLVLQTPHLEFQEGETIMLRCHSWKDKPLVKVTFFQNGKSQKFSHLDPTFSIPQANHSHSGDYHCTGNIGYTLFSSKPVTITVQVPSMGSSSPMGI

[1] = biological target: T3, CD19 on CD19-expressing Raji B cells (human, UniProt P15391 20-556); test: FACS, Raji cells
T3 construct: whole, on cells
T3 sequence (looked up): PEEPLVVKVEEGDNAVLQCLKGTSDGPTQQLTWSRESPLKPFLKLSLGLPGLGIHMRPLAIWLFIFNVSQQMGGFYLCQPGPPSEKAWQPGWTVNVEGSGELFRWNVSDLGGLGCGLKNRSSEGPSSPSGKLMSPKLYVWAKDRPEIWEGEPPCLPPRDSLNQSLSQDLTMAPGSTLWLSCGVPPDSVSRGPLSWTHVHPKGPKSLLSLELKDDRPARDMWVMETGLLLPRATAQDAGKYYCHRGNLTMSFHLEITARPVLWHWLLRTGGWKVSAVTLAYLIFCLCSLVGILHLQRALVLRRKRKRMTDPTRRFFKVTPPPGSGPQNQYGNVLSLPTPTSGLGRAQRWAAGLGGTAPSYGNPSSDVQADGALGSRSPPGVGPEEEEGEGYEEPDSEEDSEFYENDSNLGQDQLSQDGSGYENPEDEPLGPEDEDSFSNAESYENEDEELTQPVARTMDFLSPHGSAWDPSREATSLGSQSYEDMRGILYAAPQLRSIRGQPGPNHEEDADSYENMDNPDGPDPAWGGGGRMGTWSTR

[2] = biological target: T3, CD19 on CD19-expressing Raji B cells; test: whole cell binding by FACS on Raji B cells, RFU against concentration (nM, log axis)
[3] = biological target: T4, mouse CD19 on Mouse spleen cells (mouse, UniProt P25918); test: FACS on freshly isolated mouse spleen cells, Mean RFU normalized to human IgG
T4 construct: on the surface of freshly isolated mouse spleen cells
T4 sequence (CD19 on the cell surface, looked up): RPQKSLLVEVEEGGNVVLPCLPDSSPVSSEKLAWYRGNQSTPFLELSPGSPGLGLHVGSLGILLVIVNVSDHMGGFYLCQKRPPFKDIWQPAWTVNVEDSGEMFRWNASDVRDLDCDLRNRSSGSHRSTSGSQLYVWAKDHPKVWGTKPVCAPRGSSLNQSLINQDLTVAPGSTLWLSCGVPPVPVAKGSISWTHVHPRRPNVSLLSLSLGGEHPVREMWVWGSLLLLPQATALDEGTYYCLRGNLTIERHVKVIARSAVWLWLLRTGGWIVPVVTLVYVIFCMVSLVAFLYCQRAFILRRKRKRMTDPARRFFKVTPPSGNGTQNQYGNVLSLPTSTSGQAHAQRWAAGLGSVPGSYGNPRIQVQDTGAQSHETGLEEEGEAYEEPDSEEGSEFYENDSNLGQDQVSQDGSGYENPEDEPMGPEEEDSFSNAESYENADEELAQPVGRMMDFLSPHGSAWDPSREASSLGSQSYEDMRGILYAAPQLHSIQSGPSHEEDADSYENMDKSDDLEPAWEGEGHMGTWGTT

[4] = biological target: T3, CD19 on CD19-expressing Raji B cells; test: FACS, Raji cells; remark: listed apart in the source
CD16aWT = CD16aWT (UniProt P08637 17-208); test: SPR, antibody captured, FcγR injected
[5] = biological target: T5, CD3 on CD3-expressing T cells (Jurkat, HPB-ALL) (UniProt P07766 23-207); test: whole cell binding by FACS on CD3-expressing Jurkat T cells; concentration not shown
T5 construct: whole, on cells; A multi-chain complex on cells; also called CD3 complex

[6] = biological target: T6, cynomologous CD3 receptor antigen (coated, ELISA) (cynomolgus [Macaca fascicularis], UniProt Q95LI5 22-117); test: ELISA on coated cynomolgus CD3 receptor antigen ('Cyno-CD3-HEK'), anti-human Fcgamma specific secondary antibody, TMB, OD450
T6 sequence (looked up): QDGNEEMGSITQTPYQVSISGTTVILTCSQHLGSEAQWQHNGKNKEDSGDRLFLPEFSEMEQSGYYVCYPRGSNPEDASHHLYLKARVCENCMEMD

[7] = biological target: T5, CD3 on CD3-expressing T cells (Jurkat, …); test: FACS, Jurkat cells
[8] = biological target: T5, CD3 on CD3-expressing T cells (Jurkat, …); test: FACS, HBP-ALL T cells
[9] = biological target: T5, CD3 on CD3-expressing T cells (Jurkat, …); test: FACS, HPB-ALL cells

B1: v1379, anti-CD19 BiTE (VL-VH) scFv / anti-CD3 BiTE (VH-VL) scFv heterodimeric Fc (bispecific antibody)
chain 1: DIQLTQSPASLAVSLGQRATISCKASQSVDYDGDSYLNWYQQIPGQPPKLLIYDASNLVSGIPPRFSGSGSGTDFTLNIHPVEKVDAATYHCQQSTEDPWTFGGGTKLEIKGGGGSGGGGSGGGGSQVQLQQSGAELVRPGSSVKISCKASGYAFSSYWMNWVKQRPGQGLEWIGQIWPGDGDTNYNGKFKGKATLTADESSSTAYMQLSSLASEDSAVYFCARRETTTVGRYYYAMDYWGQGTTVTVSSAAEPKSSDKTHTCPPCPAPELLGGPSVFLFPPKPKDTLMISRTPEVTCVVVDVSHEDPEVKFNWYVDGVEVHNAKTKPREEQYNSTYRVVSVLTVLHQDWLNGKEYKCKVSNKALPAPIEKTISKAKGQPREPQVYVYPPSRDELTKNQVSLTCLVKGFYPSDIAVEWESNGQPENNYKTTPPVLDSDGSFALVSKLTVDKSRWQQGNVFSCSVMHEALHNHYTQKSLSLSPGK
chain 2: not shown
notes: WT effector Fc; copies: 1 + 1
Kd (CD32bWT): 470 nM | Kd (CD32aWT): 600 nM | Kd [1]: 2.12 nM

B2: v873, bispecific anti-CD19 BiTE (VL-VH) scFv / anti-CD3 BiTE (VH-VL) scFv on a heterodimeric IgG1 Fc (bispecific antibody)
chain 1: DIQLTQSPASLAVSLGQRATISCKASQSVDYDGDSYLNWYQQIPGQPPKLLIYDASNLVSGIPPRFSGSGSGTDFTLNIHPVEKVDAATYHCQQSTEDPWTFGGGTKLEIKGGGGSGGGGSGGGGSQVQLQQSGAELVRPGSSVKISCKASGYAFSSYWMNWVKQRPGQGLEWIGQIWPGDGDTNYNGKFKGKATLTADESSSTAYMQLSSLASEDSAVYFCARRETTTVGRYYYAMDYWGQGTTVTVSSAAEPKSSDKTHTCPPCPAPELLGGPSVFLFPPKPKDTLMISRTPEVTCVVVDVSHEDPEVKFNWYVDGVEVHNAKTKPREEQYNSTYRVVSVLTVLHQDWLNGKEYKCKVSNKALPAPIEKTISKAKGQPREPQVYTYPPSRDELTKNQVSLTCLVKGFYPSDIAVEWESNGQPENNYKTTPPVLDSDGSFALVSKLTVDKSRWQQGNVFSCSVMHEALHNHYTQKSLSLSPGK
chain 2: not shown
notes: chain A/B is assigned by order only; also called bispecific CD19-CD3(VH-VL-BiTE)
EC50 (read off the curve) [2]: ~3 nM | binding result [3]: no binding (tested: 100 nM) | Kd [4]: 2.7 nM

B3: v1381, anti-CD19 BiTE (VL-VH) scFv / anti-CD3 BiTE (VH-VL) scFv heterodimeric Fc with N297A (bispecific antibody)
chain 1: DIQLTQSPASLAVSLGQRATISCKASQSVDYDGDSYLNWYQQIPGQPPKLLIYDASNLVSGIPPRFSGSGSGTDFTLNIHPVEKVDAATYHCQQSTEDPWTFGGGTKLEIKGGGGSGGGGSGGGGSQVQLQQSGAELVRPGSSVKISCKASGYAFSSYWMNWVKQRPGQGLEWIGQIWPGDGDTNYNGKFKGKATLTADESSSTAYMQLSSLASEDSAVYFCARRETTTVGRYYYAMDYWGQGTTVTVSSAAEPKSSDKTHTCPPCPAPELLGGPSVFLFPPKPKDTLMISRTPEVTCVVVDVSHEDPEVKFNWYVDGVEVHNAKTKPREEQYASTYRVVSVLTVLHQDWLNGKEYKCKVSNKALPAPIEKTISKAKGQPREPQVYVYPPSRDELTKNQVSLTCLVKGFYPSDIAVEWESNGQPENNYKTTPPVLDSDGSFALVSKLTVDKSRWQQGNVFSCSVMHEALHNHYTQKSLSLSPGK
chain 2: not shown
notes: Fc knock-out N297A on both chains; copies: 1 + 1
binding result (CD16aWT): no binding (tested: FcγR injected up to 10,000 nM) | binding result (CD32bWT): no binding (tested: FcγR injected up to 10,000 nM) | binding result (CD32aWT): no binding (tested: FcγR injected up to 10,000 nM) | Bmax [1]: 13900 | Kd [1]: 2.36 nM

B4: one-armed anti-CD19 antibody (v869: anti-CD19 BiTE scFv (VL-VH) on chain A, Fc only on chain B) (antibody)
chain 1: DIQLTQSPASLAVSLGQRATISCKASQSVDYDGDSYLNWYQQIPGQPPKLLIYDASNLVSGIPPRFSGSGSGTDFTLNIHPVEKVDAATYHCQQSTEDPWTFGGGTKLEIKGGGGSGGGGSGGGGSQVQLQQSGAELVRPGSSVKISCKASGYAFSSYWMNWVKQRPGQGLEWIGQIWPGDGDTNYNGKFKGKATLTADESSSTAYMQLSSLASEDSAVYFCARRETTTVGRYYYAMDYWGQGTTVTVSSAAEPKSSDKTHTCPPCPAPELLGGPSVFLFPPKPKDTLMISRTPEVTCVVVDVSHEDPEVKFNWYVDGVEVHNAKTKPREEQYNSTYRVVSVLTVLHQDWLNGKEYKCKVSNKALPAPIEKTISKAKGQPREPQVYTYPPSRDELTKNQVSLTCLVKGFYPSDIAVEWESNGQPENNYKTTPPVLDSDGSFALVSKLTVDKSRWQQGNVFSCSVMHEALHNHYTQKSLSLSPGK
chain 2: not shown
notes: also called anti-CD19 OAA; anti-CD19 one arm constructs
binding result [5]: no binding

B5: v1666-213-A (bispecific antibody)
chain 1: not shown
chain 2: DIQLTQSPASLAVSLGQRATISCKASQSVDYDGDSYLNWYQQIPGQPPKLLIYDASNLVSGIPPRFSGSGSGTDFTLNIHPVEKVDAATYHCQQSTEDPWTFGGGTKLEIKGGGGSGGGGSGGGGSQVQLQQSGAELVRPGSSVKISCKASGYAFSSYWMNWVKQRPGQGLEWIGQIWPGDGDTNYNGKFKGKATLTADESSSTAYMQLSSLASEDSAVYFCARRETTTVGRYYYAMDYWGQGTTVTVSSAAEPKSSDKTHTCPPCPAPEAAGGPSVFLFPPKPKDTLMISRTPEVTCVVVSVSHEDPEVKFNWYVDGVEVHNAKTKPREEQYNSTYRVVSVLTVLHQDWLNGKEYKCKVSNKALPAPIEKTISKAKGQPREPQVYVLPPSRDELTKNQVSLLCLVKGFYPSDIAVEWESNGQPENNYLTWPPVLDSDGSFFLYSKLTVDKSRWQQGNVFSCSVMHEALHNHYTQKSLSLSPGK
binding result [6]: no binding (tested: 300 nM)

B6: v875, bispecific anti-CD19 BiTE (VL-VH) scFv / anti-CD3 OKT3 (VL-VH) scFv on a heterodimeric IgG1 Fc (bispecific antibody)
chain 1: DIQLTQSPASLAVSLGQRATISCKASQSVDYDGDSYLNWYQQIPGQPPKLLIYDASNLVSGIPPRFSGSGSGTDFTLNIHPVEKVDAATYHCQQSTEDPWTFGGGTKLEIKGGGGSGGGGSGGGGSQVQLQQSGAELVRPGSSVKISCKASGYAFSSYWMNWVKQRPGQGLEWIGQIWPGDGDTNYNGKFKGKATLTADESSSTAYMQLSSLASEDSAVYFCARRETTTVGRYYYAMDYWGQGTTVTVSSAAEPKSSDKTHTCPPCPAPELLGGPSVFLFPPKPKDTLMISRTPEVTCVVVDVSHEDPEVKFNWYVDGVEVHNAKTKPREEQYNSTYRVVSVLTVLHQDWLNGKEYKCKVSNKALPAPIEKTISKAKGQPREPQVYTYPPSRDELTKNQVSLTCLVKGFYPSDIAVEWESNGQPENNYKTTPPVLDSDGSFALVSKLTVDKSRWQQGNVFSCSVMHEALHNHYTQKSLSLSPGK
chain 2: not shown
notes: Chain A/B is assigned by order only; copies: 1 + 1
Bmax (OD450) [7]: 1.59 OD450 | Kd [7]: 21.4 nM | Kd [8]: 19.1 nM | Kd [9]: 4.7 nM | binding result [3]: no binding (tested: 100 nM) | Kd (CD16aWT): 1000 nM | Kd (CD32bWT): 430 nM | Kd (CD32aWT): 590 nM
